Key:
[1] = target: T1, E. coli DH5α tryptophan synthase (TrpBA) (Escherichia coli, UniProt P0A879); assay type: biochemical; design: key: +: a clear ninhydrin-positive spot at the Rf of standard tryptophan derivatives after 16-65 h; (+): a weak spot in the product region; −: no product observed; NR: experiment not run; settings: indole derivative + L-serine + PLP, 37° C., 16-65 h, ninhydrin
T1 construct: made in house; host or cells: E. coli LMG194 (pBAD) or BL-21 (pET)
Description: (§1) A mixture containing 2 μmole of the indole derivative, 0.05 μmole of PLP and 50 μmol of L-serine in 40 mM KPi buffer in 8% v/v ethanol water, pH 7.5, was warmed to 37° C., then enzyme solution was added to give a final volume of 1 mL. Aliquots (100 μL) were quenched at intervals of 2, 6, and 24 hours or more in microcentrifuge capsules containing 25 μL of 6 M HCl. The quenched samples were evaporated in a Savant Speed-vac. The residues were resuspended in methanol/water (1:1, 50 μL) and analyzed by TLC on Silica gel GF254 plates alongside tryptophan and tryptamine standards, eluting with CH2Cl2/EtOH/H2O/HOAc 77:20:2:1. Products were visualized first by using short-wave UV light, then with ninhydrin spray reagent (1/1/98 w/v/v ninhydrin/HOAc/EtOH) followed by heating.
(§2) Substituted indoles were incubated with L-serine, PLP and enzyme (TrpBA or TnA) prior to TLC analysis as generally described in Example 6. Serine, which can be used instead of pyruvate and ammonia for tryptophan synthesis with TnA, was employed as the 3-carbon acid because pyruvate tended to obscure the tryptophan product spots when plates were visualized with ninhydrin. TnA-catalyzed formation of tryptophan was also faster when serine was the 3-carbon donor. Reaction rates for several substrates were also estimated by HPLC.
(§3) In Table 4, “+” indicates a clear ninhydrin-positive spot at the Rf of standard tryptophan derivatives after 16-65 h; “(+)” indicates a weak spot in the product region; “−” means no product observed, “NR” means experiment not run. ESMS=electrospray mass spectrometry. Unless otherwise indicated, the mass value given represents the singly-protonated molecular ion (M+1).

tryptophanase (TnA) = target: T2, tryptophanase (TnA) (Escherichia coli, UniProt P0A853); assay type: biochemical, E. coli; design: key: +: a clear ninhydrin-positive spot at the Rf of standard tryptophan derivatives after 16-65 h; (+): a weak spot in the product region; −: no product observed; NR: experiment not run; settings: indole derivative + L-serine + PLP, 37° C., 16-65 h, ninhydrin
T2 construct: made in house; host or cells: E. coli LMG194 (pBAD) or BL-21 (pET)
Description: as §1, §2, §3

TrpBA = target: T3, TrpBA (Escherichia coli, UniProt P0A879); assay: Relative rates of tryptophan derivative synthesis by HPLC, TrpBA; assay type: biochemical, E. coli; settings: initial rate estimated by HPLC, indole = 100%, L-serine
T3 construct: made in house; host or cells: E. coli LMG194 (pBAD) or BL-21 (pET)
Description: (§4) Reaction mixtures were prepared as in Example 6 and were incubated at 37° C. Aliquots (100 μL) were removed and quenched by addition of to 300 μL of 0.5 M sodium citrate, pH 3.0 in 10% v/v acetonitrile/water in 2 ml microcentrifuge tubes. Following centrifugation for 10 min at 13,000×g, the supernatants were passed through 0.45μ membrane filters prior to HPLC analysis of 20 μL of filtrate.
(§5) TnA reactions were run with L-serine as the 3-carbon substrate.

TnA = target: T4, TnA (Escherichia coli, UniProt P0A853); assay: Relative rates of tryptophan derivative synthesis by HPLC, TnA; assay type: biochemical, E. coli; settings: initial rate estimated by HPLC, indole = 100%, L-serine as the 3-carbon substrate
T4 construct: made in house; host or cells: E. coli LMG194 (pBAD) or BL-21 (pET)
Description: as §4, with “Aliquots” for “Reaction mixtures were prepared as in Example 6 and were incubated at 37° C. Aliquots”
as §5

TrpBA and TDC1 = assay: Coupled enzyme synthesis monitored by HPLC; assay type: biochemical; settings: L-serine, PLP, pH 8.5 phosphate buffer, 37° C.
Description: To a solution containing L-serine (25 μmol), pyridoxal phosphate (0.05 μmol) and TrpBA (0.02 to 1.5 units, depending on the substrate), TDC1 (0.2 mL 0.6 units) and KPi buffer (0.05 mmol, pH 7.5) in a volume of 0.8 mL were added […] of 5 mM indole derivative in 20% v/v ethanol/water. The mixture was incubated at 37° C. and aliquots were quenched and analyzed as described for Example 8. In cases where tryptamine and/or tryptophan standards were not available, peaks were collected for mass spectral analysis. Electrospray mass spectral analyses were performed.
Mixtures containing indole, L-serine, PLP and TDC1 were incubated in pH 8.5 phosphate buffer, analyzing aliquots by HPLC, as described in Example 12.
The procedure used in Example 24 was carried out by substituting indole with 2-methylindole, 4-hydroxymethylindole, 5-methoxy-, 5-hydroxymethyl-, 5-methoxycarbonyl, and 5,6-dimethoxyindole.

[2] = Tryptophan synthase activity of the enzyme preparation (290 nm assay); assay type: biochemical, E. coli
Description: (§6) Tryptophan synthase activity was assayed by monitoring the increase in absorbance at 290 nm of a mixture containing serine, indole and PLP (Higgins, W., et al., Biochemistry, 1979, 18, 4827). TnA-catalyzed tryptophan synthesis was also measured by the 290 nm assay, while the tryptophan lyase reaction rate was measured by monitoring the reduction in NADH in reaction mixtures containing L-tryptophan and lactate dehydrogenase, indicating the amount of pyruvate released. Tryptophan decarboxylase was assayed colorimetrically by monitoring the sabsorbance at 580 nm produced by serotonin (AAADs) or tryptamine (TDCs) following treatment of reaction aliquots with Ehrlich's reagent (4-N,N-(dimethyl)aminobenzaldehyde in ethanolic HCl; Nakazawa, H.; Kumagi, H.; Yamada, H. Biochem Biophys. Res. Commun., 1974, 61, 75-82). Serotonin could be detected with approximately 5-fold higher sensitivity by this method as compared with tryptamine. The Ehrlich reagent assay using a microtiter plate format for simultaneous analysis of multiple enzyme samples may also be used. HPLC analysis was performed on acid-quenched reaction aliquots by using a base-deactivated C8 reversed-phase support (Shandon Hypersil BD8). HPLC analysis of acid-quenched aliquots permitted calculation of a rate ratio of 4.5 to 1 for pkAAAD-catalyzed DOPA decarboxylation relative to that of L-5-hydroxytryptophan, in good agreement with the accepted ratio of approximately 5:1. (See Sourkes, T. L. Methods Enzymol., 1987, 142, 170-178, which is incorporated herein by reference.)
Reaction mixtures were prepared as in Example 6 in polymethacrylate or quartz spectrophotometer cuvettes, and the increase absorbance were measured immediately at 290 nm, assuming a change in extinction coefficient for the indole-tryptophan conversion is δ290=1.85 MM−1 cm^−1. For TrpBA, the rate at 37° C. is approximately 2.8 fold higher than at 23° C.
Activity is expressed as μmol product formed per minute, TrpBA activity is reported for the reaction: indole+serine−>tryptophan at room temperature as described in the next section. Tryptophanase is reported for the reaction: tryptophan−>indole+pyruvate+NH4^+ at room temperature. The rate of tryptophan synthesis for TrpBA under our assay conditions is approximately 3-fold higher at 37° C.

[3] = pH-rate profiles for tryptophan-metabolizing enzymes; assay type: biochemical; settings: for activity over the entire optimum pH range shown by TrpBA: pH 7.5 to 9.5
From the text: Both AAADs TDC1 and TDC2 were active over the entire optimum range shown by TrpBA. These broad activity ranges make it clear that the coupled enzyme process is not limited by pH.

[4] = Decarboxylase activity of the enzyme preparations (Ehrlich's reagent); assay type: biochemical
Description: as §6
A mixture (0.95 mL) containing L-5-hydroxytryptophan (2 mM), PLP (0.25 mM) and pH 7.5 KPi buffer (44 mM) was warmed to 37° C., then 50 μL of enzyme was added. Reaction aliquots were quenched in microcentrifuge capsules containing 50 μL each of 6M HCl to quench the enzyme reaction at 2, 5, and 20 min. Quenched aliquots were heated at 50° C. for 40 min with 750 μL each of Ehrlich's reagent (2:24:74 w/v/v […]: conc HCl: ethanol). Absorbance was read at 580-nm and compared with standards of serotonin (10-250 μM) or tryptamine (50 to 2000 μM).
Decarboxylase enzyme activity was determined using L-5-hydroxytryptophan as the substrate unless otherwise stated.

[5] = Table 2, L-5-hydroxytryptophan as substrate

Molecule | TrpBA (tryptophan product spot, TLC analysis) [1] | TnA (tryptophan product spot, TLC analysis) (tryptophanase (TnA)) | Relative rate (TrpBA) (TrpBA) [%] | Relative Rate (TnA) (TnA) [%] | Crude specific activity [4, 5] [units/mg] | Purified specific activity [4, 5] [Units/mg] | Crude specific activity ([4]; Table 3, decarboxylases) [units/mg] | activity over the entire optimum pH range shown by TrpBA [3] | other results
OCc1ccc2[nH]ccc2c1 [5-hydroxymethyl-, indole-5-methanol] | + | + | 0.03 | 1.2 |  |  |  |  | formation of tryptophan derivative and tryptamine (HPLC peaks) (TrpBA and TDC1): a second peak representing formation of tryptamine
c1cc2cc3c(cc2[nH]1)OCO3 [5,6-methylenedioxy-] | − | + | 0.018 | 1.0 |  |  |  |  | 
TrpBA: wild-type E. coli DH5α tryptophan synthase, E.C.4.2.1.20, α- and β-subunits coexpressed (protein, UniProt P0A877 1-268; P0A879 2-397, looked up) Tryptophan synthase alpha …: MERYESLFAQLKERKEGAFVPFVTLGDPGIEQSLKIIDTLIEAGADALELGIPFSDPLADGPTIQNATLRAFAAGVTPAQCFEMLALIRQKHPTIPIGLLMYANLVFNKGIDEFYAQCEKVGVDSVLVADVPVEESAPFRQAALRHNVAPIFICPPNADDDLLRQIASYGRGYTYLLSRAGVTGAENRAALPLNHLVAKLKEYNAAPPLQGFGISAPDQVKAAIDAGAAGAISGSAIVKIIEQHINEPEKMLAALKVFVQPMKAATRS Tryptophan synthase beta chain: TTLLNPYFGEFGGMYVPQILMPALRQLEEAFVSAQKDPEFQAQFNDLLKNYAGRPTALTKCQNITAGTNTTLYLKREDLLHGGAHKTNQVLGQALLAKRMGKTEIIAETGAGQHGVASALASALLGLKCRIYMGAKDVERQSPNVFRMRLMGAEVIPVHSGSATLKDACNEALRDWSGSYETAHYMLGTAAGPHPYPTIVREFQRMIGEETKAQILEREGRLPDAVIACVGGGSNAIGMFADFINETNVGLIGVEPGGHGIETGEHGAPLKHGRVGIYFGMKAPMMQTEDGQIEESYSISAGLDFPSVGPQHAYLNSTGRADYVSITDDEALEAFKTLCLHEGIIPALESSHALAHALKMMRENPDKEQLLVVNLSGRGDKDIFTVHDILKARGEI |  |  |  |  |  |  |  |  | rate at 37° C. relative to 23° C. ([2]; 290 nm assay): approximately 2.8 fold; Crude specific activity ([2]; Table 3, TrpBA): 1.2 units/mg; Crude spec activity ([2]; TrpBA, indole+serine->tryptophan, room temperature): 1.2; Purified specific activity ([2]; TrpBA, indole+serine->tryptophan, room temperature, after DEAE cellulose): 2.2 Units/mg; rate of tryptophan synthesis at 37° C. relative to room temperature ([2]; assay conditions of Table 1): approximately 3 fold; percent of the maximum rate ([3]; between pH 7.5 and 9.5, L-serine and indole): at least 90%
TDC1: C. accuminata tryptophan decarboxylase expressed in E. coli DH5α (protein, UniProt P93082 1-502, looked up) Tryptophan decarboxylase TDC1: MGSLDSNYDTESPASVGQFNPLDPEEFRKQAHCIVDFIADYYKNIESYPVLSQVDPGYRHSRLGKNAPYRSEPFESILKDVQKDIIPGMTHWMSPNFFAHFPATVSSAAFVGEMLCTCFNSVGFNWLASPAATELEMVVIDWLANMLKLPKSFMFSGTGGGVLQGTTSEAILCTLIAASPMHFEIVGVKTSTSFVVYGSDQTHSTYAKACKLAGILPCNIRSIPTTADSNFSVSPLLLRRAIEADKAAGMVPLYICATVGTTSTTAIDPLSSLADVANDYGVWFHVDAAYAGSACICPEFRHYLDGIERADSLSLSPHKWLLSYLDCCCLWVKSPSLLVKALSTDPEYLKNQPSESKSVVDYKDWQVGTGRRFKALRLWFVMRSYGVANLQSHIRTDVQMAKMFEGFVKSDPRFEILVPRVFSLVCFRLNPISGSDPTGTEALNRKLLDWVNSTGRVYMTHTKVGGIYMLRFAVGATLTEKRHVSSAWKLIKEGADVLLKED |  |  |  |  | 0.11 | 0.3 | 0.11 | active | 
TDC2: C. accuminata tryptophan decarboxylase expressed in E. coli DH5α (protein, UniProt P93083 1-498, looked up) Tryptophan decarboxylase TDC2: MGSIDSNYDTESAGQCRPLEPEEFRKQAHQMVDFIADYYKNIESYPVLSQVEPGYLQSRLPETAPYRPEPFESILKDVHKDIIPGVTHWLSPNFFAYFPATVSSAAFVGEMLCTCFNAVGFNWLASPAELELEMVVMDWLASMLKLPNSFTFLGTGGGVIQGTTSEAILCTLIAARDRALESIGVDSIHKLVVYGSDQTHSTYAKACNLAGILPCNIRSIRTEAVANFSLSPDSLHREIEADVAAGMVPLYLCATVGTTSTTAIDSLSPLADVANDYGLWFHVDAAYAGSACICPEFRHYLDGIERADSLSLSPHKWLLSYLDCCCLWVKRPSVLVKALSTDPEYLKNKPSESNSVVDFKDWQVGTGRRFKALRLWFVMRSYGVANLQSHIRSDIQMAKMFEEFVNSDPRFEIVVPRVFSLVCFRLNPFSKSDPCNTELLNRKLLEWVNSTGQVYITHTKVGGVYMLRFAVGATLTEEHHVSAAWKLIREGADALLCS |  |  |  |  | 0.12 | 0.2 | 0.12 | active | 
